Experimental data taken from patent US12331106B2, “Anti-angiopoietin-2 antibodies that induce Tie2 activation” (Institute for Basic Science, priority 2018, dated 2025).
Positions count from the first letter of the chain named. Values belong to the molecule of their own block, whether it stands above or below them.

Legend:
[1] = target: T1, hAng2 (Homo sapiens, UniProt O15123); assay: OCTET affinity of mouse monoclonal anti-Ang2 antibodies against hAng2; conditions: hAng2 fixed on AR2G biosensor, 1:1 binding model
T1 sequence (O15123 19-496): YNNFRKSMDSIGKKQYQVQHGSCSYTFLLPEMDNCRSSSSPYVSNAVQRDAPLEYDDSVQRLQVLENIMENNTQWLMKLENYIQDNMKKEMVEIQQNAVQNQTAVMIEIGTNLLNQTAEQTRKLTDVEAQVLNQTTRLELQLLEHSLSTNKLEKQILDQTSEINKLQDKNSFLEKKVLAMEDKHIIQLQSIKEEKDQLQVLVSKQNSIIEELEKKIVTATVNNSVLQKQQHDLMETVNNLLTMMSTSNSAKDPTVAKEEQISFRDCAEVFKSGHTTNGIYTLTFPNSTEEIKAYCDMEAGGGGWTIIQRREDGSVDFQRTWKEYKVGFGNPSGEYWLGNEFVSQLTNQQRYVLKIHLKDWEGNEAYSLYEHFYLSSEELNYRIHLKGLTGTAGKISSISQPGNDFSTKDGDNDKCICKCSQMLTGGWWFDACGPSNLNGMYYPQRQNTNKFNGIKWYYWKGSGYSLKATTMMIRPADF
Experimental: The affinity of mouse monoclonal antibody against hAng2 was measured using OCTET® system (ForteBio, real-time, label-free bio-layer interferometry system for determination of affinity, kinetics, and concentration). Specifically, buffer and samples were measured in total 200 μl/well using Black 96-well plates (96 well F-type black plates, Greiner). The biosensor used for affinity measurements was hydrated for 10 min before measurement with AR2G tip (ForteBio OCTET®). After the hydration, hAng2 was diluted in 10 mM sodium acetate, pH 6.0 buffer at a concentration of 10 μg/ml, fixed on AR2G biosensor, and blocked with 1M ethanolamine. The mouse monoclonal anti-Ang2 antibodies were diluted to 50, 25, 12.5, 6.25, 3.125, and 0 nM with 1× kinetic buffer, and subjected to association for 300 seconds and dissociation for 900 seconds. For affinity measurement (KD), the association rate (K-on) and dissociation rate (K-off) were analyzed by binding curve (global) and fitted to 1:1 binding model using OCTET® data analysis v9.0.0.10 program.

[2] = test system: CD31+ endothelial cells of CNV; assay: Co-localization of subcutaneously injected antibody with CD31 in endothelial cells of CNV; type: in vivo, mice; conditions: 25 mg/kg subcutaneous at 1 day; 2, 4 and 8 days after laser photocoagulation
Experimental: To investigate whether subcutaneously injected 2C8H11 can also exert the therapeutic effects on CNV, we firstly evaluated co-localization 2C8H11 antibody and CD31 in endothelial cells of CNV. The subcutaneous administration of 2C8H11 antibody (25 mg/kg) was performed at 1 day after laser photocoagulation. As a control, Fc (25 mg/kg) was administered in the same manner to the mice. The co-localization of 2C8H11 antibody and anti-CD31 antibody (1:200, Millipore®) in endothelial cells of CNV was directly detected by anti-human IgG antibody (1:1000, Jackson ImmunoResearch Laboratories) at 2, 4, and 8 days after laser photocoagulation (FIG. 15A).

[3] = test system: tumor vessels of LLC tumor; assay: Tumor vessel perfusion (lectin) and hypoxia (Hypoxyprobe) in LLC tumors; type: in vivo, C57BL/6 mice; conditions: compared with Fc or Fc+Cpt
Experimental: To analyze the functionality of tumor vessels after treatment with 2C8H11, vessel perfusability and hypoxia status were evaluated. Before harvesting tumor mass, the mice were intravenously injected with 100 μl of DyLight™ 488-Lectin (Vector laboratory) and intraperitoneally injected with 60 mg/kg of Pimonidazole-HCl (HYPOXYPROBE™+) dissolved in PBS for 30 min before sacrifice. The mice were perfusion-fixed with 4% PFA. We obtained frozen sections from the tumor mass, which were stained with hamster anti-CD31 antibody (1:200, Millipore®) and 4.3.11.3 mouse Pacific blue-Mab (1:50, HYPOXYPROBE™+) in PBS. The sections were imaged using LSM880 confocal microscope (Zeiss), and the obtained images were analyzed using ImageJ software (http://rsb.info.nih.gov/ij) to quantify Lectin+area/CD31+area and HYPOXYPROBE™+area.
Furthermore, hypoxia, as indicated by HYPOXYPROBE™+area, was decreased in tumors treated with 2C8H11 or 2C8H11+Cpt by 72%, when compared with tumors treated with Fc or Fc+Cpt (FIG. 11C).

[4] = target: T1, hAng2; assay: OCTET affinity of humanized anti-Ang2 antibodies against hAng2; type: binding; conditions: OCTET, antibody fixed on AR2G biosensor, hAng2 50-0 nM, 1:1 binding model
Experimental: The affinity of humanized anti-Ang2 antibody against hAng2 was measured using OCTET® system (ForteBio). Specifically, buffer and samples were measured in total 200 μl/well using Black 96-well plates (96 well F-type black plates, Greiner). The biosensor used for affinity measurements was hydrated for 10 min before measurement with AR2G tip (ForteBio OCTET®). After the hydration, humanized anti-Ang2 antibody was diluted in 10 mM sodium acetate, pH 6.0 buffer at a concentration of 10 μg/ml, fixed on AR2G biosensor, and blocked with 1M ethanolamine. The recombinant hAng2 was diluted to 50, 25, 12.5, 6.25, 3.125, and 0 nM with 1× kinetic buffer, and subjected to association for 300 sec and dissociation for 900 sec. For affinity measurement (KD), association rate (K-on) and dissociation rate (K-off) were analyzed by binding curve (global) and fitted to 1:1 binding model using OCTET® data analysis v9.0.0.10 program.
The affinities of humanized 2C8 antibodies to hAng2 were in Table 15.

B1: 2C8: mouse monoclonal anti-Ang2 antibody; VH SEQ ID NO: 19, VL SEQ ID NO: 21; hybridoma KCLRF-BP-00417 (antibody, V domains shown)
VH: QVQLQQSGPQLVRPGASVKISCKASGYSFTSYWMHWVKQRPGQGLEWIGMIDPSDSETRLNQKFKDKASLTVDKSSSTAYMQLSSPTSGDSAVYYCARRFYYGSDWYFDVWGAGSTVTVSS
VL: DIVMTQSHKFMSTSVGDRVSITCKASQDVGTAVAWYQQKPGQSPKLLIYWASTRHTGVPDRFTGSGSGTDFTLTISNVQSEDLADYFCQQYSSYPLTFGSGTKLEIK
modifications: Heavy Chain Variable Region; Light Chain Variable Region
notes: mouse monoclonal anti-Ang2 antibody; hybridoma KCLRF-BP-00417
Koff [1]: 3.54e-06 s⁻¹
Kon [1]: 77800 M⁻¹ s⁻¹

Koff [1]: 5.04e-07 s⁻¹
Kon [1]: 137000 M⁻¹ s⁻¹
B2: 4B9: mouse monoclonal anti-Ang2 antibody; VH SEQ ID NO: 9, VL SEQ ID NO: 11; hybridoma KCLRF-BP-00418 (antibody, V domains shown)
VH: EVQLVESGGGLVKPGGSLKLSCAASGFTFSDYYMYWVRQTPEKRLEWVATISVGGSFTYYPDSVKGRFTISRDNAKNNLYLQMSSLKSEDTAMYYCARDWGLRPWFVYWGQGTLVTVSA
VL: B1 VL with G30S, F71Y, N77S, S80A, D85L, F87Y, Y91H, S92Y, Y94T, L96P
modifications: Heavy Chain Variable Region; Light Chain Variable Region
notes: mouse monoclonal anti-Ang2 antibody; hybridoma KCLRF-BP-00418

Kdis [4]: 1.4e-05 s⁻¹
Kon [4]: 66000 M⁻¹ s⁻¹
B3: 2C8H11: humanized anti-Ang2 human IgG1 antibody from mouse 2C8; VH SEQ ID NO: 55, VL SEQ ID NO: 56 (antibody, V domains shown)
VH: QVQLVQSGAEVKKPGASVKVSCKASGYTFTSYWMHWVRQAPGQGLEWMGMIDPSDSETRLNQKFKDRVTMTRDTSTSTVYMELSSLRSEDTAVYYCARRFYYGSDWYFDVWGQGTLVTVSS
VL: DIQLTQSPSFLSASVGDRVTITCKASQDVGTAVAWYQQKPGKAPKLLIYWASTRHTGVPSRFSGSGSGTEFTLTISSLQPEDFATYYCQQYSSYPLTFGQGTKVEIK
modifications: human IgG1 constant regions; VH; VL
detection of administered antibody in CD31+ endothelial cells in CNV area [2]: highly detectable
hypoxia decrease (HYPOXYPROBE+ area) [3]: 72%
increase in perfusion (Lectin+ area/CD31+ area) [3]: approximately 3 fold
